Like-named read-outs stand apart in the source and are kept apart here.

Assay in all cases: BLI
A general note: BLI is a label-free optical method that tracks binding on a fibre tip over time.

For test [1], the target named is T1, Biotinylated SARS-CoV-2 S1 protein (ACRO, S1N-C82E8) (UniProt P0DTC2 16-685).
Test [2] deals with T1, Biotinylated SARS-CoV-2 S1 protein …. This is another data set of the same source.
Test [3] has the same target. The source holds these as a separate data set.
The target is the same in test [4]. This is another data set of the same source.
Test [5] shares this target. The source holds these as a separate data set.
Test [6] shares this target. The source holds these as a separate data set.

B1: Ab_17 (scFv, V domains shown)
VH: QVQLVQSGGGVVQPGRSLRLSCAASGFTFDDYAMHWVRQVPGKGLEWVSGIDWNSGVIGYADSVKGRFTISRDNVKNSLYLQMNSLRTEDSALYYCAKDIGPGGSGSYYAFDIWGQGTTVTVSS
VL: QSALTQPASVSGSPGQSITISCTGTSSDVGGSKYVSWYQQHPGKAPKVMIYDVTKRPSGVPDRFSGSKSGNTASLTISGLQAEDEADYYCAAWDDSLNGVVFGGGTKLTVL
Turning to B1, the Kd in test [1] and in test [2] was 0.716 nM in each case.

B2: Ab 27 scFv-Fc (scFv, V domains shown)
VH: QVQLVQSGTEVKKPGASVKVSCKASGYSFTGSHLHWVRQAPGQGLEWMGWINPDSGVINYAQKFQGRVTLTRDTSISTAYMELSGLRSDDTAVYYCARDKAIGYVWALDYWGQGTLVTVSS
VL: QSALTQPPSVSGSPGQSVTISCTGTSSDVGTYNRVSWYQQPPGKAPKLMIYEVSNRPSGVSNRFSGSKSGNTASLTISGLQAEDEADYYCSSYTRTFTYVFGTGTKVTVL
B2: the Kd in test [1] and in test [2] was below 0.001 nM each time.

B3: Ab 12 scFv-Fc (S1-R3-T1-H7) (scFv, V domains shown)
VH: EVQLVESGPGVVSPSATLFLTCSVSGGSIRTHSWNWIRQPPGKPLEWIGFIHHSGATNKNPSLKSRVTISSDTSKNEFSLTLTSVTAADTAVYYCARGPGILSYWSRGTLVTVSS
VL: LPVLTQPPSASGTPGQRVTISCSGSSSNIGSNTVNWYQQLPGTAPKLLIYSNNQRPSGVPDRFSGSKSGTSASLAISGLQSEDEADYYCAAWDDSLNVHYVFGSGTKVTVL
On to B3, for which the Kd in test [3] was below 1 pM; in test [4], below 1 pM; in test [2] it was below 0.001 nM; in test [5], below 1 pM; in test [6], below 1 pM.

B4: Ab 28 scFv-Fc (scFv, V domains shown)
VH: QVTLKESGPGLVNPSETLSLTCTVSGASISNSFWSWIRQSPGKGLEWIGYTSYSGNSIYNPSLKSRLTMSIDTSKNQLSLNLRSLTAADTAVYYCARREWIKGHFDYWGQGTLVTVSS
VL: NFMLTQPHSVSESPGKTVTISCTGSGGSIASNYVQWYQQRPGSAPTTVIYEDNQRPSGVPDRFSGSIDSSSNSASLTISGLKTEDEADYYCQSYDSSNPVVFGGGTKLTVL
B4: the Kd in test [1] and in test [2] was below 0.001 nM throughout.

B5: Ab 23 scFv-Fc (scFv, V domains shown)
VH: EVQLVQSGAEVKKPGSSVKVSCRSSGGTFSTYGITWVRQAPGQGLEWMGRIIPSLGIPNYAQKFQGRVTITADTSVSTAWMELSSLESDDTAIYYCARENIDLATNDFWGQGTLVTVSS
VL: QSALTQPPSASGSPGQSVTISCTGTSRDIGAYGYVSWYQQVPGKAPKLIIYEVRNRPSGVSSRFSGSKSGNTASLTISGLQAEDEADYYCSSYTSSSTLDVVFGGGTKLTVL
B5: the Kd in test [1] and in test [2] was 0.338 nM each time.

In general, Kd refers to a measure of binding affinity in units of concentration. High values mean weaker binding, low ones tighter binding.
